The values that follow come from patent US20190300605A1 (Pfizer, published 2019).

Where only a bound is given, the exact number is not on record here.

In assay [1] the target is T1, human MAdCAM (full length) (human, UniProt Q13477 19-382).
T1 sequence (looked up): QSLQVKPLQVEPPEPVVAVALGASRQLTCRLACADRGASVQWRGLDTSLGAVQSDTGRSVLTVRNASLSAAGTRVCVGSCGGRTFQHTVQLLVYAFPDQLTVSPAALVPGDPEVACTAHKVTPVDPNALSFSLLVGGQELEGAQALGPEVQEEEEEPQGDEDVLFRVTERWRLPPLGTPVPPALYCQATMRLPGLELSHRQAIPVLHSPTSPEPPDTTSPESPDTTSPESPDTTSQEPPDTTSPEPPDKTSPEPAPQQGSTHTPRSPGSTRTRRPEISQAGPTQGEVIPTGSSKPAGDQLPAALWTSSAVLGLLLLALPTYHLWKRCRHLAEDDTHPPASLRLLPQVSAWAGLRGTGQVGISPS
Kind of assay: cell-based or functional assay.

In assay [2] the target is MAdCAM-IgG1 Fc fusion protein (human). Put plainly: cell-based or functional assay.
Assay [3] deals with T2, chimeric cynomolgus/human MAdCAM (cynomolgus; human, UniProt Q13477 226-382, limits assumed).
T2 sequence: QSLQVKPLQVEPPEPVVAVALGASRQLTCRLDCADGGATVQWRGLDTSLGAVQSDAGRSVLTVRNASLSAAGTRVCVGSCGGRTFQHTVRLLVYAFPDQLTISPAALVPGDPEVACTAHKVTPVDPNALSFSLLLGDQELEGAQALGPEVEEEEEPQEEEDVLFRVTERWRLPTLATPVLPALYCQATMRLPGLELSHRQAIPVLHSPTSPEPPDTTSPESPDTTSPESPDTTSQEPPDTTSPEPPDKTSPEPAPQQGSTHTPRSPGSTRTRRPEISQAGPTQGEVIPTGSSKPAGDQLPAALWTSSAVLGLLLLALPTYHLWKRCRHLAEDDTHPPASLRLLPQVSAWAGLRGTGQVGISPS
Kind of assay: cell-based or functional assay.

The target in assay [4] is T3, MAdCAM-IgG1 Fc fusion protein (human).
T3 construct: Made in CHO-DHFR cells; also called MAdCAM-IgFc
Put plainly: SPR BIAcore protocol 1: mAb captured, MAdCAM-IgG1 Fc injected. How it is done: To perform kinetic analyses, a high density mouse anti-human (IgG₂ and IgG₄) antibody surface over a CMS BIAcore sensor chip was prepared using routine amine coupling. Hybridoma supernatants were diluted 10, 5, 2-fold in HBS-P (10 mM HEPES pH 7.4, 150 mM NaCl, 0.005% Surfactant P20) running buffer containing 100 μg/mL BSA and 10 mg/mL carboxymethyldextran or used neat. Each mAb was captured onto a separate surface using a […] contact time and a 5 mM wash for stabilization of the mAb baseline. MAdCAM-IgG₁ Fc (141 nM) fusion protein was then injected at over all surfaces for one minute, followed by a 3 mM dissociation. The data were normalized for the amount of antibody captured on each surface and evaluated with global fit Langmuir 1:1, using baseline drift models available on the BIAevaluation software provided by BIAcore.

The target in assay [5] is T3, MAdCAM-IgG1 Fc fusion protein. Put plainly: SPR BIAcore protocol 2: mAb amine-coupled, MAdCAM-IgG1 Fc injected. How it is done:
Affinity-purified mAb were immobilized onto the dextran layer of a CMS biosensor chip using amine coupling. […] Samples of MAdCAM-IgG₁ Fc fusion protein in running buffer were prepared at concentrations ranging from 0.2-55 nM (a 0 nM solution comprising running buffer alone was included as a zero reference). Samples were randomized and injected in duplicate for 3 mM each across 4 flow cells using HBS-EP (10 mM HEPES pH 7.4, 150 mM NaCl, 3 mM EDTA, 0.005% Surfactant P20) as running buffer. A flow rate of 100 μL/min was used to minimize mass transport limitations. Dissociation of MAdCAM-IgG₁ Fc fusion protein was monitored for 180 mins, the surface regenerated by a 6 sec injection of 25 mM H₃PO₄ (50 μL/min), or 10 mM (6.22.2), 20 mM (6.67.1, 6.73.2, 6.77.1) to 25 mM (6.34.2) and 45 mM NaOH (6.14.2) and the data analysed using the BIAevaluation (v3.1) software package.
In general terms: SPR reads the build-up and loss of mass on a sensor chip optically.

The target in assay [6] is T4, recombinant mouse MAdCAM (mouse, UniProt Q61826 22-365).
T4 sequence (looked up): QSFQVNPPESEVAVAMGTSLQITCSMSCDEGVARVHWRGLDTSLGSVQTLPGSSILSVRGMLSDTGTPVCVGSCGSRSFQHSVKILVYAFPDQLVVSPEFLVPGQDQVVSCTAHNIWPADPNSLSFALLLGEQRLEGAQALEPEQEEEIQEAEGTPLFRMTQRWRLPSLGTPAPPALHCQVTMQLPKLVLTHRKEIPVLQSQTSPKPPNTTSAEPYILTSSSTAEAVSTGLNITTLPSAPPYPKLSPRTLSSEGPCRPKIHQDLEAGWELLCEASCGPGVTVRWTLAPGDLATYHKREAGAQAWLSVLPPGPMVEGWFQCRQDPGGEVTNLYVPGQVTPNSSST
Kind of assay: ELISA.

The target in assay [7] is T3, MAdCAM-IgG1 Fc fusion protein. Kind of assay: cell-based or functional assay. This is another data set of the same source.

B1: anti-MAdCAM monoclonal antibody 7.20.5 (antibody, human IgG2, kappa, V domains shown)
VH: QVQLQESGPGLVKPSETLSLTCTVSGSSISSYHWNWIRQPAGKGLEWIGRIYTSGSTNYNPSLKSRVTMSLDTSKNQFSLKLSSVTAADTAVYYCAREGVRYYYASGSYYYGLDVWGQGTTVTVSS
VL: not shown
notes: human IgG2 kappa from hybridoma 7.20.5
Consider B1, for which the “Mean IC50, JY cell adhesion, MAdCAM FlpIn CHO Assay” value (“Mean IC50 … MAdCAM FlpIn CHO Assay” below) in assay [1] came out at 0.387 µg/mL. Besides, in assay [2], the “Mean IC50, JY cell adhesion to MAdCAM IgG1 Fc fusion” value (from here on “Mean IC50 … to MAdCAM IgG1 Fc fusion”) came out at 0.025 µg/mL. The “Functional IC50, cynomolgus/human MAdCAM-CHO/JY adhesion assay” value in assay [3] was 0.62 µg/mL. In assay [4], the Kd (as a rule, the equilibrium constant for the complex coming apart) is 42.2 pM; the off-rate constant (koff) (in general, the rate constant with which the complex falls apart) was determined as 1.9e-05 s⁻¹; the kon (as a rule, a measure of how fast the partners come together) is 450000 M⁻¹ s⁻¹. In assay [5], this molecule displayed a Kd of 75 pM, a koff of 1.2e-05 s⁻¹ and a kon of 160000 M⁻¹ s⁻¹. Further, the binding result in assay [6] is on record as “no binding”.

B2: anti-MAdCAM monoclonal antibody 6.67.1 (antibody, human IgG4, kappa, V domains shown)
VH: QVQLQESGPGLVKPSETLSLTCTVSGDSISSNYWSWIRQPAGKGLEWIGRIYTSGGTNSNPSLRGRVTILADTSKNQFSLKLSSVTAADTAVYYCARDRITIIRGLIPSFFDYWGQGTLVTVSS
VL: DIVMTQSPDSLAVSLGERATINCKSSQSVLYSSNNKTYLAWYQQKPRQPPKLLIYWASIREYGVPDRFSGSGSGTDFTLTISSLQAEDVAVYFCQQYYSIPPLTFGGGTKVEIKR
notes: human IgG4 kappa from hybridoma 6.67.1
On to B2, for which, in assay [1], the “Mean IC50 … MAdCAM FlpIn CHO Assay” value worked out at 0.298 µg/mL. In addition, the “Mean IC50 … to MAdCAM IgG1 Fc fusion” value in assay [2] worked out at 0.013 µg/mL. The “Functional IC50, cynomolgus/human MAdCAM-CHO/JY adhesion assay” value in assay [3] amounted to 0.75 µg/mL. Besides, the “MAdCAM IgG1 Fc fusion Assay Mean IC50 (Parent)” value in assay [7] is 0.013 µg/mL. In addition, in assay [4], the dissociation constant (Kd) was at most 17 pM, the koff is at most 1e-05 s⁻¹ and the kon is 590000 M⁻¹ s⁻¹. In assay [5], this molecule had a Kd below 20 pM, a koff below 5e-06 s⁻¹ and a kon of 240000 M⁻¹ s⁻¹. In addition, the binding result in assay [6] is “no binding”.

B3: anti-MAdCAM monoclonal antibody 9.8.2 (antibody, human IgG4, kappa, V domains shown)
VH: QVQLVESGGGVVQPGRSLRLSCAASGFTFSSYGMHWVRQAPGKGLEWVAVIWYDGSNEYYADSVKGRFTISRDNSKNTLYLQMNSLRAEDTAVYYCARGAYHFAYWGQGTLVTVSS
VL: DIQMTQSPSSLSASVGDRVTITCQASQDISNYLNWYQQKPGKAPKLLIYDASNLETGVPSRFSGSGSGTDFTFTISSLQPEDIATYSCQHSDNLSITFGQGTRLEIKR
notes: human IgG4 kappa from hybridoma 9.8.2
Turning to B3, the “Mean IC50 … MAdCAM FlpIn CHO Assay” value in assay [1] was found to be 0.44 µg/mL. In addition, in assay [2], the “Mean IC50 … to MAdCAM IgG1 Fc fusion” value is 0.02 µg/mL. In assay [3], the “Functional IC50, cynomolgus/human MAdCAM-CHO/JY adhesion assay” value is 0.83 µg/mL. For the same molecule, in assay [4], the Kd turned out to be 100 pM, the koff amounted to 0.00023 s⁻¹ and the kon was 2.3e+06 M⁻¹ s⁻¹. In assay [5], this molecule showed a Kd of 32.5 pM, a koff of 1.4e-05 s⁻¹ and a kon of 440000 M⁻¹ s⁻¹. For the same molecule, the binding result in assay [6] is reported as “no binding”.

B4: anti-MAdCAM monoclonal antibody 6.22.2 (antibody, human IgG4, kappa, V domains shown)
VH: QVQLVESGGGVVQPGRSLRLSCAASGHTFSSDGMHWVRQAPGKGLEWVAIIWYDGSNKYYADSVKGRFTISRDNSKNTLYLQMNSLRAEDTAVYYCARDPGYYYGMDVWGQGTTVTVSS
VL: EIVLTQSPDFQSVTPKEKVTITCRASQRIGSSLHWYQQKPDQSPKLLIKYASQSFSGVPSRFSGSGSGTNFTLTINGLEAEDAATYYCHQSGRLPLTFGGGTKVEIKR
notes: human IgG4 kappa from hybridoma 6.22.2
In the case of B4, the “Mean IC50 … MAdCAM FlpIn CHO Assay” value in assay [1] was 0.573 µg/mL. For the same molecule, the “Mean IC50 … to MAdCAM IgG1 Fc fusion” value in assay [2] was 0.018 µg/mL. Further, in assay [3], the “Functional IC50, cynomolgus/human MAdCAM-CHO/JY adhesion assay” value turned out to be 0.83 µg/mL. Further, the “MAdCAM IgG1 Fc fusion Assay Mean IC50 (Parent)” value in assay [7] is 0.018 µg/mL. In assay [4], this molecule came in with a Kd of 9.3 pM, a koff of 1.4e-05 s⁻¹ and a kon of 1.5e+06 M⁻¹ s⁻¹. In assay [5], this molecule showed a Kd of 3.8 pM, an off-rate constant (koff) of 8.7e-07 s⁻¹ and a kon of 230000 M⁻¹ s⁻¹. For the same molecule, the binding result in assay [6] is given as “no binding”.

B5: anti-MAdCAM monoclonal antibody 7.26.4 (antibody, human IgG2, kappa, V domains shown)
VH: QVQLVQSGAEVKKPGASVKVSCEASGYTFTSYGIDWVRQAPGQGLEWMGWISVYSGNTNYAQKLQGRVTMSTDTSTSTAYMELRSLRSDDTAVYYCAREGSSSSGDYYYGMDVWGQGTTVTVSS
VL: DIVMTQTPLSLSVTPGQPASISCKSNQSLLYSDGKTYLFWYLQKPGQPPQLLIYEVSNRFSGVPDRFSGSGSGTDFTLKISRVEAEDVGVYYCMQSIQLPWTFGQGTKVEIKR
notes: human IgG2 kappa from hybridoma 7.26.4
As for B5, the “Mean IC50 … MAdCAM FlpIn CHO Assay” value in assay [1] came to 0.574 µg/mL. In addition, in assay [2], the “Mean IC50 … to MAdCAM IgG1 Fc fusion” value was found to be 0.021 µg/mL. Further, the “Functional IC50, cynomolgus/human MAdCAM-CHO/JY adhesion assay” value in assay [3] turned out to be 0.96 µg/mL. In addition, the “MAdCAM IgG1 Fc fusion Assay Mean IC50 (Parent)” value in assay [7] came to 0.021 µg/mL. In assay [4], this molecule came in with a Kd of 271 pM, a koff of 0.00026 s⁻¹ and a kon of 960000 M⁻¹ s⁻¹. For the same molecule, in assay [5], the affinity, expressed as Kd, was 80 pM; the koff came out at 1.2e-05 s⁻¹; the on-rate (kon) was 150000 M⁻¹ s⁻¹. The binding result in assay [6] was “no binding”.

B6: anti-MAdCAM monoclonal antibody 6.34.2 (antibody, human IgG4, kappa, V domains shown)
VH: QVQLVESGGGVVQPGRSLRLSCAASGFTFSSYGMHWVRQAPGKGLEWVAVISNDGNNKYYADSVKGRFTISRDNSKNTLYLQMNSLSAEDTAVYYCARDSTAITYYYYGMDVWGQGTTVTVSS
VL: DIQMTQSPSSLSASVGDRVTITCRASQNISSYLNWFQQKPGKAPKLLIYAASGLKRGVPSRFSGSGSGTDFTLTIRTLQPDDFATYSCHQSYSLPFTFGPGTKVDIKR
notes: human IgG4 kappa from hybridoma 6.34.2
As to B6, the “Mean IC50 … MAdCAM FlpIn CHO Assay” value in assay [1] came out at 0.285 µg/mL. The “Mean IC50 … to MAdCAM IgG1 Fc fusion” value in assay [2] was determined as 0.013 µg/mL. Also, the “Functional IC50, cynomolgus/human MAdCAM-CHO/JY adhesion assay” value in assay [3] worked out at 0.47 µg/mL. The “MAdCAM IgG1 Fc fusion Assay Mean IC50 (Parent)” value in assay [7] came out at 0.013 µg/mL. In addition, in assay [4], the Kd came out at 15.8 pM, the koff stood at 1.9e-05 s⁻¹ and the kon stood at 1.2e+06 M⁻¹ s⁻¹. Moreover, in assay [5], the Kd was below 15 pM, the koff was below 5e-06 s⁻¹ and the kon stood at 330000 M⁻¹ s⁻¹. Further, in assay [6], the binding result is “no binding”.
